The text below walks through data of paper PMC3813429, “New Insight to Structure-Function Relationship of GalNAc Mediated Primary Interaction between Insecticidal Cry1Ac Toxin and HaALP Receptor of Helicoverpa armigera” (PLoS ONE, 2013).

For this assay, the target named is Cry1Ac WT toxin (Bacillus thuringiensis). Put plainly: SPR. The conditions noted are these: both partners purified.

B1: HaALP, membrane bound alkaline phosphatase of Helicoverpa armigera (receptor)
chain: HWLHPAAPAAASRAETSANYWAQDAQAAINARLERVESVKKAHNVIMFLGDGMSVPTLAAARTLLGQRQGKTGEETKLHFETFPTIGLVKTYCVDAQIADSACTATAYLCGVKNNYGAIGVDGTVRRGDCQAASNTATHVESIAEWALADGRDVGIVTTTRITHASPAGTFAKTANRTWENDGEVSQMGLDAKDCPDIAHQLVHHHPGNKFKVIFGGGRRAFLPNTVQDDEGSYGRRIDNRDLIQEWKNDKDSRNVSHQYLWQREQLMNLNDDLPEYMLGLFESSHMEYHLKSDPQTEPTLAELTEVAIRSLRRNEKGFFLFVEGGRIDHAHHDNLVELALDETLEMDKAVATATKMLSEDDSLIVVTADHAHVMTINGYSGRGNDILGPSRDVGRDRMPYMTLSYTNGPGFRPHVNDIRQNVTAEPNYRTLDWESHVDVPLVDETHGGDDVAVFARGPHHSMFTGLYEQSQLPHLMAYAACIGPGRHACASAAHLPSAHFFVALPALFISILLR
modifications: glycan with α-GalNAc at the non-reducing terminal (site not stated)
In turn, B1 yielded a Kd of 7.68 nM, a koff of 0.00129 s⁻¹ and a kon of 168000 M⁻¹ s⁻¹.
